# Measurements: US20230035659A1, “Compositions and Methods for TTR Gene Editing and Treating ATTR Amyloidosis Comprising a Corticosteroid or Use Thereof” (Intellia Therapeutics, Inc., priority 2019, published 2023)
# Strand notation (5' to 3'): a small letter for the sugar, then the base; units joined by * are phosphorothioate-linked, units joined directly phosphodiester-linked; [ ] holds rarer units or linkages, { } end groups; capitals alone tell only the bases. m = 2'-O-methyl; r = 2'-OH (RNA)
# B1: G000486: TTR sgRNA modified sequence, Human, SEQ ID NO: 93; guide sequence of CR003339 (nucleic acid)
# guide: mA*mC*mA*rCrArArArUrArCrCrArGrUrCrCrArGrCrArGrUrUrUrUrArGrAmGmCmUmAmGmAmAmAmUmAmGmCrArArGrUrUrArArArArUrArArGrGrCrUrArGrUrCrCrGrUrUrArUrCrAmAmCmUmUmGmAmAmAmAmAmGmUmGmGmCmAmCmCmGmAmGmUmCmGmGmUmGmCmU*mU*mU*mU
# B2: G000488: TTR sgRNA modified sequence, Human, SEQ ID NO: 95; guide sequence of CR003346 (nucleic acid)
# guide: mA*mA*mA*rGrUrUrCrUrArGrArUrGrCrUrGrUrCrCrGrGrUrUrUrUrArGrAmGmCmUmAmGmAmAmAmUmAmGmCrArArGrUrUrArArArArUrArArGrGrCrUrArGrUrCrCrGrUrUrArUrCrAmAmCmUmUmGmAmAmAmAmAmGmUmGmGmCmAmCmCmGmAmGmUmCmGmGmUmGmCmU*mU*mU*mU
# B3: G000489: TTR sgRNA modified sequence, Human, SEQ ID NO: 96; guide sequence of CR003344 (nucleic acid)
# guide: mU*mU*mU*rGrArCrCrArUrCrArGrArGrGrArCrArCrUrGrUrUrUrUrArGrAmGmCmUmAmGmAmAmAmUmAmGmCrArArGrUrUrArArArArUrArArGrGrCrUrArGrUrCrCrGrUrUrArUrCrAmAmCmUmUmGmAmAmAmAmAmGmUmGmGmCmAmCmCmGmAmGmUmCmGmGmUmGmCmU*mU*mU*mU
# B4: G000493: TTR sgRNA modified sequence, Human, SEQ ID NO: 100; guide sequence of CR003368 (nucleic acid)
# guide: mA*mA*mG*rUrGrCrCrUrUrCrCrArGrUrArArGrArUrUrGrUrUrUrUrArGrAmGmCmUmAmGmAmAmAmUmAmGmCrArArGrUrUrArArArArUrArArGrGrCrUrArGrUrCrCrGrUrUrArUrCrAmAmCmUmUmGmAmAmAmAmAmGmUmGmGmCmAmCmCmGmAmGmUmCmGmGmUmGmCmU*mU*mU*mU
# B5: G000490: TTR sgRNA modified sequence, Human, SEQ ID NO: 97; guide sequence of CR003366 (nucleic acid)
# guide: mA*mA*mA*rUrArGrArCrArCrCrArArArUrCrUrUrArCrGrUrUrUrUrArGrAmGmCmUmAmGmAmAmAmUmAmGmCrArArGrUrUrArArArArUrArArGrGrCrUrArGrUrCrCrGrUrUrArUrCrAmAmCmUmUmGmAmAmAmAmAmGmUmGmGmCmAmCmCmGmAmGmUmCmGmGmUmGmCmU*mU*mU*mU
# B6: G000494: TTR sgRNA modified sequence, Human, SEQ ID NO: 101; guide sequence of CR003360 (nucleic acid)
# guide: mG*mU*mG*rArGrUrCrUrGrGrArGrArGrCrUrGrCrArUrGrUrUrUrUrArGrAmGmCmUmAmGmAmAmAmUmAmGmCrArArGrUrUrArArArArUrArArGrGrCrUrArGrUrCrCrGrUrUrArUrCrAmAmCmUmUmGmAmAmAmAmAmGmUmGmGmCmAmCmCmGmAmGmUmCmGmGmUmGmCmU*mU*mU*mU
# B7: G000483: TTR sgRNA modified sequence, Human, SEQ ID NO: 90; guide sequence of CR005298 (nucleic acid)
# guide: mU*mC*mC*rArCrUrCrArUrUrCrUrUrGrGrCrArGrGrArGrUrUrUrUrArGrAmGmCmUmAmGmAmAmAmUmAmGmCrArArGrUrUrArArArArUrArArGrGrCrUrArGrUrCrCrGrUrUrArUrCrAmAmCmUmUmGmAmAmAmAmAmGmUmGmGmCmAmCmCmGmAmGmUmCmGmGmUmGmCmU*mU*mU*mU
# B8: G000482: TTR sgRNA modified sequence, Human, SEQ ID NO: 89; guide sequence of CR003365 (nucleic acid)
# guide: mU*mG*mU*rArGrArArGrGrGrArUrArUrArCrArArArGrGrUrUrUrUrArGrAmGmCmUmAmGmAmAmAmUmAmGmCrArArGrUrUrArArArArUrArArGrGrCrUrArGrUrCrCrGrUrUrArUrCrAmAmCmUmUmGmAmAmAmAmAmGmUmGmGmCmAmCmCmGmAmGmUmCmGmGmUmGmCmU*mU*mU*mU
# B9: G000500: TTR sgRNA modified sequence, Human, SEQ ID NO: 107; guide sequence of CR003337 (nucleic acid)
# guide: mC*mC*mA*rGrUrCrCrArGrCrArArGrGrCrArGrArGrGrGrUrUrUrUrArGrAmGmCmUmAmGmAmAmAmUmAmGmCrArArGrUrUrArArArArUrArArGrGrCrUrArGrUrCrCrGrUrUrArUrCrAmAmCmUmUmGmAmAmAmAmAmGmUmGmGmCmAmCmCmGmAmGmUmCmGmGmUmGmCmU*mU*mU*mU
# B10: G000499: TTR sgRNA modified sequence, Human, SEQ ID NO: 106; guide sequence of CR005303 (nucleic acid)
# guide: mU*mG*mA*rArUrCrCrArArGrUrGrUrCrCrUrCrUrGrArGrUrUrUrUrArGrAmGmCmUmAmGmAmAmAmUmAmGmCrArArGrUrUrArArArArUrArArGrGrCrUrArGrUrCrCrGrUrUrArUrCrAmAmCmUmUmGmAmAmAmAmAmGmUmGmGmCmAmCmCmGmAmGmUmCmGmGmUmGmCmU*mU*mU*mU
# B11: G000570: TTR sgRNA modified sequence, Human, SEQ ID NO: 111; guide sequence of CR003347 (nucleic acid)
# guide: mC*mA*mU*rUrGrArUrGrGrCrArGrGrArCrUrGrCrCrUrGrUrUrUrUrArGrAmGmCmUmAmGmAmAmAmUmAmGmCrArArGrUrUrArArArArUrArArGrGrCrUrArGrUrCrCrGrUrUrArUrCrAmAmCmUmUmGmAmAmAmAmAmGmUmGmGmCmAmCmCmGmAmGmUmCmGmGmUmGmCmU*mU*mU*mU
# B12: G000484: TTR sgRNA modified sequence, Human, SEQ ID NO: 91; guide sequence of CR003367 (nucleic acid)
# guide: mA*mG*mA*rCrArCrCrArArArUrCrUrUrArCrUrGrGrArGrUrUrUrUrArGrAmGmCmUmAmGmAmAmAmUmAmGmCrArArGrUrUrArArArArUrArArGrGrCrUrArGrUrCrCrGrUrUrArUrCrAmAmCmUmUmGmAmAmAmAmAmGmUmGmGmCmAmCmCmGmAmGmUmCmGmGmUmGmCmU*mU*mU*mU
# B13: G000480: TTR sgRNA modified sequence, Human, SEQ ID NO: 87; guide sequence of CR003353 (nucleic acid)
# guide: mA*mA*mA*rGrGrCrUrGrCrUrGrArUrGrArCrArCrCrUrGrUrUrUrUrArGrAmGmCmUmAmGmAmAmAmUmAmGmCrArArGrUrUrArArArArUrArArGrGrCrUrArGrUrCrCrGrUrUrArUrCrAmAmCmUmUmGmAmAmAmAmAmGmUmGmGmCmAmCmCmGmAmGmUmCmGmGmUmGmCmU*mU*mU*mU
# B14: G000502: TTR Cyno specific sgRNA modified sequence, SEQ ID NO: 114; guide sequence of CR000689; cross homologous between mouse and cyno (nucleic acid)
# guide: mA*mC*mA*rCrArArArUrArCrCrArGrUrCrCrArGrCrGrGrUrUrUrUrArGrAmGmCmUmAmGmAmAmAmUmAmGmCrArArGrUrUrArArArArUrArArGrGrCrUrArGrUrCrCrGrUrUrArUrCrAmAmCmUmUmGmAmAmAmAmAmGmUmGmGmCmAmCmCmGmAmGmUmCmGmGmUmGmCmU*mU*mU*mU
# System: potential off-target genomic sites
# Experiment: Off-target analysis by oligo insertion based assay in primary human hepatocytes (sgRNAs)
# Format: cell-based
# Conditions: 100 ng Cas9 mRNA, 25 nM sgRNA, 12.5 nM donor oligo, 48 h
# Method: Off-target analysis of sgRNAs targeting TTR was performed in primary human hepatocytes (PHH) as described in Example 5, with the following modifications. PHH were plated at a density of 33,000 cells per well on collagen-coated 96-well plates as described in Example 1. Twenty-four hours post plating, cells were washed with media and transfected using Lipofectamine RNAiMAX (ThermoFisher, Cat. 13778150) as described in Example 1. Cells were transfected with a lipoplex containing 100 ng Cas9 mRNA, immediately followed by the addition of another lipoplex containing 25 nM of the sgRNA and 12.5 nM of the donor oligo (0.3 μL/well). Cells were lysed 48 hours post-transfection and gDNA was extracted and analyzed as further described in Example 5. The data is graphically represented in FIG. 20.
# Fewer sites were detected in PHH for every guide tested as compared to the HekCas9 cell line, with no unique sites detected in PHH alone.
row,Molecule,# Sites in PHH (off-target integration sites detected)
1,B1,0
2,B2,0
3,B3,2
4,B4,1
5,B5,0
6,B6,0
7,B7,0
8,B8,2
9,B9,12
10,B10,1
11,B11,1
12,B12,0
13,B13,2

# System: TTR mRNA
# Experiment: TTR mRNA knockdown (quantitative PCR) in primary human hepatocytes treated with LNPs
# Format: cell-based
# Conditions: PHH; LNP dose 100 ng mRNA cargo; gRNA:mRNA 1:2; 96 h; single treatment; vs untreated control
# Method: In one experiment, PHH were cultured and treated with LNPs comprising Cas9 mRNA (SEQ ID NO:1) and a gRNA of interest (See FIG. 29, Table 36), as described in Example 4. The LNPs were prepared using the cross-flow procedure described above and purified and concentrated using PD-10 columns and Amicon centrifugal filter units, respectively. The LNPs were formulated with an N:P ratio of 6.0 and contained Lipid A, Cholesterol, DSPC, and PEG2k-DMG in a 50:38:9:2 molar ratio, respectively. The LNPs comprised a gRNA:mRNA ratio of 1:2, and the cells were treated at a dose of 300 ng (with respect to the amount of mRNA cargo delivered).
# (§1) Ninety-six (96) hours following LNP treatment (with biological triplicates for each condition), mRNA was purified from PHH cells using the Dynabeads mRNA DIRECT Kit (ThermoFisher Scientific) according to the manufacturer's protocol. Reverse Transcription (RT) was performed with Maxima reverse transcriptase (ThermoFisher Scientific) and a poly-dT primer. The resulting cDNA was purified with Ampure XP Beads (Agencourt). For Quantitative PCR, 2% of the purified cDNA was amplified with Taqman Fast Advanced Mastermix and 3 Taqman probe sets, TTR (Assay ID: Hs00174914_m1), GAPDH (Assay ID: Hs02786624_g1), and PPIB (Assay ID: Hs00168719_m1). The assays were run on the QuantStudio 7 Flex Real Time PCR System according to the manufacturer's instructions (Life Technologies). Relative expression of TTR mRNA was calculated by normalizing to the endogenous controls (GAPDH and PPIB) individually, and then averaged.
# The groups in FIG. 29 and Table 36 are identified by the gRNA ID used in each LNP preparation.
# In a separate experiment, TTR mRNA knockdown was evaluated following treatment with LNPs comprising G000480, G000486, and G000502. The LNPs were formulated and PHH were cultured and treated with the LNPs, each as described in the experiment above in this Example with the exception that the cells were treated at a dose of 100 ng (with respect to the amount of mRNA cargo delivered).
# as §1, with “(single treatment” for “(with biological triplicates”, “the High Capacity cDNA Reverse Transcription Kit” for “Maxima reverse transcriptase”, “according to the manufacturer's instructions.” for “and a poly-dT primer. The resulting cDNA was purified with Ampure XP Beads (Agencourt).”, “the” for “the purified”
# The groups in FIG. 30 and Table 37 are identified by the gRNA ID used in each LNP preparation.
row,Molecule,Avg % Knockdown (TTR mRNA) [%]
1,B1,97.36
2,B14,90.94
3,B13,95.61

# Same assay, conditions: PHH; LNP dose 300 ng mRNA cargo; gRNA:mRNA 1:2; 96 h; biological triplicates; vs untreated control
row,Molecule,Avg % Knockdown (TTR mRNA) [%]
1,B2,92.77
2,B3,91.85
3,B4,87.53
4,B5,78.34
5,B6,91.15
6,B7,68.78
7,B8,82.31
8,B9,92.90
9,B10,91.38
10,B11,93.38
11,B12,75.22
12,B13,95.19
